From paper PMC10907169
Values joined by “and” are separate entries in the source; they are usually repeats but may differ in a detail not shown here. Identical values can stand only once.

Target: T1, Full-length human KIF5A heavy chain (WT), C-terminal FLAG tag (human), Q12840
T1 chain: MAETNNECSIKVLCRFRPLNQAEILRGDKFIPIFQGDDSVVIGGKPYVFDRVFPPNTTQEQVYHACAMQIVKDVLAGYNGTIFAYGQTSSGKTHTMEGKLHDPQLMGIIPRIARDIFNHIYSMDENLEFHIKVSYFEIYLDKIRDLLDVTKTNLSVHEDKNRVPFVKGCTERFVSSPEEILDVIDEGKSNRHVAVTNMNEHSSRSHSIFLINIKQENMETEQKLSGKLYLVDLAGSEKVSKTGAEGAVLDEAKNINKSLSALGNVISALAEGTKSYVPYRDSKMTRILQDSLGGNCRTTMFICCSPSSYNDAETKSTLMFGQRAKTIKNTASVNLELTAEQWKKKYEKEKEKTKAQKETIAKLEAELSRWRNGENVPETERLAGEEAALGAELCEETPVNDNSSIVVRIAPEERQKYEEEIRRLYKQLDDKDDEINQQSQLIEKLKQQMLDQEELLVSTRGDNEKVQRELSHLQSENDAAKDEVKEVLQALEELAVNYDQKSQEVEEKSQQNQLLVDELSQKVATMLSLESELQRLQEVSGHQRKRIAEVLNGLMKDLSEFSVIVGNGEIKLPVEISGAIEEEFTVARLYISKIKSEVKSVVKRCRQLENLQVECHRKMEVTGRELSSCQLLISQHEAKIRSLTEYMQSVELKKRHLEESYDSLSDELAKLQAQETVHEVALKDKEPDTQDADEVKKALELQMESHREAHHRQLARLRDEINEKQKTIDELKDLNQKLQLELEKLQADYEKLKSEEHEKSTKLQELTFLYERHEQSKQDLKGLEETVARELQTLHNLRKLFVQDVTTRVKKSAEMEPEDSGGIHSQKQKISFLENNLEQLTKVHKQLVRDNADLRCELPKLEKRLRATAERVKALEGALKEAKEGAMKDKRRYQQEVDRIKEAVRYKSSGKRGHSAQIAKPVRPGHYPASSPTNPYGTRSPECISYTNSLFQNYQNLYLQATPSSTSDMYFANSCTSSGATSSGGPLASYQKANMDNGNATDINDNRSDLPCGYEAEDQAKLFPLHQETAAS
Experiment: mass photometry; single-molecule landing assay, Refeyn OneMP, 25 nM KIF5A, room temperature (~23 °C); results say low salt buffer (150 mM KCl), methods name PBS; monomer to dimer, and dimers to tetramer
Details: remark: other sources report otherwise

- stoichiometry N: 2 and 4
B1: Full-length human KIF5A heavy chain (WT), C-terminal FLAG tag, Q12840 1-1032 (natural protein)
chain: T1 chain
